Test results published in article doi:10.1101/2020.01.06.896332 (bioRxiv, 2020).
Where “and” joins values, the source holds several entries; their conditions need not be identical. Equal entries are not always repeated.

Biological target: the molecule itself
Test: SEC

B1: human diacylglycerol O-acyltransferase-1 (enzyme, UniProt O75907 1-488, looked up)
chain: MGDRGSSRRRRTGSRPSSHGGGGPAAAEEEVRDAAAGPDVGAAGDAPAPAPNKDGDAGVGSGHWELRCHRLQDSLFSSDSGFSNYRGILNWCVVMLILSNARLFLENLIKYGILVDPIQVVSLFLKDPYSWPAPCLVIAANVFAVAAFQVEKRLAVGALTEQAGLLLHVANLATILCFPAAVVLLVESITPVGSLLALMAHTILFLKLFSYRDVNSWCRRARAKAASAGKKASSAAAPHTVSYPDNLTYRDLYYFLFAPTLCYELNFPRSPRIRKRFLLRRILEMLFFTQLQVGLIQQWMVPTIQNSMKPFKDMDYSRIIERLLKLAVPNHLIWLIFFYWLFHSCLNAVAELMQFGDREFYRDWWNSESVTYFWQNWNIPVHKWCIRHFYKPMLRRGSSKWMARTGVFLASAFFHEYLVSVPLRMFRLWAFTGMMAQIPLAWFVGRFFQGNYGNAAVWLSLIIGQPIAVLMYVHDYYVLNYEAPAAEA
stoichiometry N: 2 and 4
